The values that follow are results of earlier work, collected in publication PMC8442009.

Some targets named below: γc (Homo sapiens) (UniProt P31785); IL-4Rα (Homo sapiens) (UniProt P24394); IL-4Rα/γc (Homo sapiens) (UniProt P24394).
Chain of UniProt P31785 (P31785 23-262): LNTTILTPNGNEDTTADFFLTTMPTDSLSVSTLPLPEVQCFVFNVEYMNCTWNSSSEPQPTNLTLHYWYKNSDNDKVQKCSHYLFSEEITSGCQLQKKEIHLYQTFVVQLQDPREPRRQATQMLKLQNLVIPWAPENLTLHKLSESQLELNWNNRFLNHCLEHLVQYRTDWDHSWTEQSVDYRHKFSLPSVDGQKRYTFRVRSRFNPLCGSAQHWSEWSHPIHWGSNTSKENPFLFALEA

Usually Kd stands for the constant that tells how readily two partners part at equilibrium. Regarding IL-4-IL-4Rα (from UniProt P05112), in the series with γc (Homo sapiens), the Kd is > 500 nM.

For IL-4 (from UniProt P05112), the Kd in the series with IL-4Rα (Homo sapiens) is 0.266 nM; in the series with IL-4Rα/γc (Homo sapiens) it was 0.079 nM.
